# Data as given in patent US9074002B2, “PTP1B inhibitors” (Cold Spring Harbor Laboratory, priority 2009, dated 2015).
# B1: scFv61: scFv, SEQ ID NO: 94 and 164 (protein)
# scFv: MKKTAIAIAVALAGFATVAQAALTQPSSVSANPGETVKITCSGGGSYAGSYYYGWYQQKAPGSAPVTLIYDNTNRPSNIPSRFSGSLSGSTGTLTITGVRAEDEAVYYCGSFDSSTDGGYAAIFGAGTTLTVLGQSSRSSAVTLDESGGGLQTPGGGLSLVCKASEFTFSSYAMEWVRQAPGKGLEWVAYINSDGSSTWYAPAVKGRATISRDNGQSTVRLQLNSLRAEDTATYYCTRGSGGENIDTWGHGTEVIVSSTSGQAGQHHHHHHGAYPYDVPDYAS
# B2: scFv118: scFv, SEQ ID NO: 142 and 166 (protein)
# scFv: MKKTAIAIAVALAGFATVAQAALTQPSSVSANLGGTVEITCSGGSGSYGWYQQKSPGGAPVTVIYYNDKRPSDIPSRFSGSKSGSTATLTITGVQVEDEAVYYCGSYDSSYVGIFGVGTTLTVLGQSSRSSAVTLDESGGGLQTPRGALSLVCKASGFTFSSYSMAWVRQAPGKGLEFVAGIQNDGSITDYGSAVDGRATISRDDGQSTVRLQLNNLRTEDTATYYCAKTTVADGVIGAYGIDAWGHGTEVIVSSTSGQAGQHHHHHHGAYPYDVPDYAS
# B3: scFv62: scFv, SEQ ID NO: 95 and 165 (protein)
# scFv: MKKTAIAIAVALAGFATVAQAALTQPSSVSANPGGTVKITCSGSSSAYGYGWYQQKSPGSAPVTVIYNNNKRPSNIPSRFSGSKSGSTGTLTITGVQAEDEAVYFCGSEDSSTDAIFGAGTTLTVLGQSSRSSAVTLDESGGGLQTPGGALSLVCKASGFTFSSYDMGWVRQAPGKGLEYVAGITNDGRYASYGSAVDGRATISRDNGQSTVRLQLNNLRAEDTGTYYCARDDGSGWTGNTIDTWGHGTEVIVSSTSGQAGQHHHHHHGAYPYDVPDYAS
# Molecular target: T1, endogenous PTP1B-OX (Homo sapiens, UniProt P18031)
# T1 construct: endogenous in cells; host or cells: 293T cells (transfected only with the scFv intrabody)
# T1 sequence (P18031 1-435): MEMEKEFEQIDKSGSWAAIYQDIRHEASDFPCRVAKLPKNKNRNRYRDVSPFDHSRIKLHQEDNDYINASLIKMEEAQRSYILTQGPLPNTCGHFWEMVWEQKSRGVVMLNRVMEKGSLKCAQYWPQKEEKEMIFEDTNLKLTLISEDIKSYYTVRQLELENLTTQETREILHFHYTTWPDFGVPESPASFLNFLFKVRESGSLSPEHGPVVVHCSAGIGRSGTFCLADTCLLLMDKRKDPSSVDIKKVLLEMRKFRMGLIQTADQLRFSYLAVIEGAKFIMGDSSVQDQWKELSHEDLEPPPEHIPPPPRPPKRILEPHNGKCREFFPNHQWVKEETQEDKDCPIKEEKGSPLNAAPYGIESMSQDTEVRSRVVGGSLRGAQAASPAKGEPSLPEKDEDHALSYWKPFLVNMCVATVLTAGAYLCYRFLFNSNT
# Assay: Intrabody interaction in 293T cells treated with H2O2 (Ni-NTA pull down / anti-PTP1B immunoprecipitation)
# Type: cell-based
# Details: 1 mM H2O2 5 minutes, FIGS. 11, 12
# Method: One of the positive candidate scFvs (scFv45) was cloned in pcDNA3.2/V5-GW/D-TOPO expression vector and transiently expressed in mammalian cells as stable intracellular antibody (aka intrabody) (FIG. 10). To detect PTP1B-OX and scFv45 interaction in mammalian cells, scFv45 was overexpressed in 293T cells as described herein (See Example 4) and 48 hours post transfection the cells were serum-starved for 16 hours in growth medium (DMEM, low glucose) without serum (FBS), then incubated with 1 mM H2O2 (in growth medium without serum) for 5 minutes at 37° C. or treated with 20 mM NAC (in growth medium without serum) for 1 hour at 37° C. Cells treated with H2O2 were washed twice with cold (4° C.) PBS and lysed in lysis buffer (25 mM HEPES, pH 7.4, 150 mM NaCl, 0.25% Deoxychloate, 1% TritonX-100, 25 mM NaF, 10 mM MgCl2, 1 mM EDTA, 10% Glycerol, 0.5 mM PMSF, 10 mM Benzamidine, protease inhibitor cocktail). Cells treated with NAC were lysed with lysis buffer containing 2 mM TCEP to ensure a post-lysis reducing environment. Interaction between PTP1B and intrabody45 were tested by pulling down the protein complex from 1 mg of total cell lysate with Ni-NTA agarose or by immunoprecipitating PTP with anti-PTP1B (FG6). For the pull down experiment, Ni-NTA agarose beads were incubated with the lysates (both oxidized and reduced) at 4° C. Protein complex bound to the Ni-NTA agarose beads was pulled down and washed three times; first with lysis buffer containing 20 mM imidazole followed by two more washes with wash buffer (PBS, pH 7.4, 20 mM imidazole, 0.05% BSA, 0.05% Tween-20 and protease inhibitors). Applicant used 20 mM imidazole in the wash buffer to reduce the non-specific binding of proteins with the Ni-NTA agarose beads. The complex was eluted with wash buffer containing 500 mM imidazole with gentle shaking at 4° C. and the eluate was mixed with SDS sample buffer with DTT. For the immunoprecipitation experiments, 1 mg of total cell lystates (both oxidized and reduced) was incubated with anti-PTP1B antibody (FG6) at 4° C. The interacting protein complex was immunoprecipitated after incubating the lysate-antibody mixture with protein A/G Sepharose at 4° C. After immunoprecipitation, Sepharose beads were washed three times; first with lysis buffer followed by two more washes with wash buffer (PBS, pH 7.4, 0.05% BSA, 0.05% Tween-20 and protease inhibitors). The Sepharose beads were then heated at 90° C. in 2×SDS sample buffer with DTT. Proteins from the pulled down or immunoprecipitated complex were separated by SDS-PAGE. PTP was detected with anti-PTP1B antibody (FG6) and the intrabodies were detected with anti-HA (3F10)-HRP antibody [anti-HA (3F10)-HRP, Roche] by immunoblotting.
# In the initial in vitro phosphatase screening assay using reversibly oxidized (with H2O2) recombinant PTP1B, Applicant found four different PTP1B-OX specific scFvs (scFv45, scFv57, scFv64 and scFv106) from the initial pool of 12 different scFvs. […] Applicant has also shown that scFv45, expressed as an intrabody in mammalian cells, can bind to endogenous PTP1B-OX but not endogenous PTP under reducing conditions. Further assessment was carried out to identify additional PTP1B-OX-specific intrabodies. Additional scFvs have been subcloned in pcDNA3.2/V5-GW/D-TOPO mammalian expression vector (FIG. 10) from their respective phagemid constructs. After transient overexpression of these scFvs as intrabodies in 293T cells, the interaction between endogenous PTP1B and these intrabodies in both H2O2-treated cells and cells was observed under reducing condition (treated with NAC and lysed with lysis buffer containing TCEP). […] All can be used in the methods and compositions described herein. Additional scFvs, such as some or all of the 137 selected individual scFvs from the library, can be similarly tested by in vitro screening and/or by binding assay in mammalian cells.
row,Molecule,binding of intrabody to endogenous PTP1B-OX
1,B1,bound weakly to PTP1B-OX
2,B2,bound weakly to PTP1B-OX
3,B3,bound weakly to PTP1B-OX
